Our source for the EA (acceptor-centric FRET efficiency), ED (donor-centric FRET efficiency) and stoichiometry N values is PMC6886297.

Test [1] deals with YFP‐labeled Bcl‐xl (UniProt Q07817). Nature of the test: FRET or BRET; live-cell FRET two-hybrid assay (E-FRET and 3^3-FRET) in HeLa cells coexpressing CFP-Mff and YFP-Bcl-xl, 50 µM Z-VAD-FMK; cytoplasm of cells with filamentous Mff and Bcl-xl distribution (ROI 1).
For test [2] the target is unchanged. Nature of the test: FRET or BRET; live-cell FRET two-hybrid assay (E-FRET and 3^3-FRET) in HeLa cells coexpressing CFP-Mff and YFP-Bcl-xl, 50 µM Z-VAD-FMK; cytoplasm of cells with punctate Mff and Bcl-xl distribution (ROI 3).
The target is the same in test [3]. Kind of test: FRET or BRET; live-cell FRET two-hybrid assay (E-FRET and 3^3-FRET) in HeLa cells coexpressing CFP-Mff and YFP-Bcl-xl, 50 µM Z-VAD-FMK; tubular mitochondrial region of cells with filamentous distribution (ROI 2).
Test [4] shares this target. Nature of the test: FRET or BRET; live-cell FRET two-hybrid assay (E-FRET and 3^3-FRET) in HeLa cells coexpressing CFP-Mff and YFP-Bcl-xl, 50 µM Z-VAD-FMK; fragmented mitochondrial region of cells with punctate distribution (ROI 4).

Sequence of UniProt Q07817 (Q07817 whole entry): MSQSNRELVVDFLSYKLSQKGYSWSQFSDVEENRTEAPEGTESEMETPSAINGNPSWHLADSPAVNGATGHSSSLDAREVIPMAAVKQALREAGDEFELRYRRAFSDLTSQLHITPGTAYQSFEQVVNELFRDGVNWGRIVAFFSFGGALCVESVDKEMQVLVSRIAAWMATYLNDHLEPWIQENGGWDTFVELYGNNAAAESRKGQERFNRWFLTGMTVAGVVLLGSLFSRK

On to “CFP‐labeled Mff (mitochondrial fission factor) (from UniProt Q9GZY8 1-342) (natural protein)”, for which the EA (acceptor-centric FRET efficiency) was 0.151 in test [1], 0.072 in test [2], 0.071 in test [3] and 0.115 in test [4]. In addition, the ED (donor-centric FRET efficiency) in test [1] was 0.086; in test [2], 0.041; in test [3], 0.067; in test [4], 0.109. Besides, the stoichiometry N in test [1] worked out at 0.586 Bcl‐xl/Mff; in test [2], 0.643 Bcl‐xl/Mff; in test [3] it was 0.97 Bcl‐xl/Mff; in test [4] it was 0.924 Bcl‐xl/Mff.
